Test results: patent EP4553085A1 (Hangzhou Sumgen Biotech Co., Ltd., dated 2025)

B1: chimeric antibody 5E11-2 (antibody, V domains shown)
VH: EVKLEESGGGLVQPGGSMKLSCAASGFTFSDAWMDWVRQSPEKGLEWVAEIRSKPNNHATYYAESVKGRFTISRDDSKSSVYLQMNSLRAEDTGIYYCTRTTDYSMDYWGQGTSVTVSS
VL: DIQMTQSPASLAVSLGQRATISCRASQSVSASSYSYMHWYQQKPGQPPKLLIKYASNLQSGVPARFSGSGSGTDFTLNIHPVEEEDSATYYCQHSWEIPRTFGGGTKLEIK
B2: chimeric antibody 1A2-7 (antibody, V domains shown)
VH: QVQLQQPGAELVKPGASVKLSCKASGYTFTSYWMHWVKQRPGQGLEWIGEINPSNGRTNYNEKFKSKATLTVDKSSSTAYMQLNSLTSEDSAVYYCARDRYDEGNAMDYWGQGTSVTVSS
VL: DIVMTQTTSSLSASLGDRVTISCRASQDITNYLNWYQQKPDGTVKLLIYYTSRLHSGVPSRFSGSGSGTDYSLTISNLEQEDIATYFCQQGDTLPRTFGGGTKLEIK
B3: chimeric antibody 3G9-1 (antibody, V domains shown)
VH: QVQLQQPGAELVKPGASVKLSCKASGYTFTSYWMHWVKQRPGQGLEWIGEINPSNGRTNYNEKFKSKATLIVDKSSSTAYMQLSSLTSEDSAVYYCARGIYYGYDYAMDYWGQGTSVTVSS
VL: DIQMTHTTSSLSASLGDRVTISCRASQDISNYLNWYQQKPDGTVKLLIYYTSRLHSGVPSRFSGSGSGTDYSLTISNLEQEDIATYFCQQGNTLPPTFGGGTKLEIK
B4: chimeric antibody 3A2-18 (antibody, V domains shown)
VH: EVQLQQPGAELVKPGASVKLSCKASGYTFTSYWMHWVKQRPGQGLEWIGEINPSNGRTNYNEKFKSKATLTVDKSSSTAYVQLNSLTSEDSAVYYCARDRYDEGNAMDYWGQGTSVTVSS
VL: DIVMTQTTSSLSASLGDRVTISCRASQDITNYLNWYQQKPDGTVKLLIYYTSRLHSGVPSRFSGSGSGTDYSLTISNLEQEDIATYFCQQGDTLPRTFGGGTKLEIK

What follows are binders tested against T1, Human LILRB4/CD85k/ILT3 Protein (ECD, His Tag), Sino Biological (human, UniProt Q8NHJ6 22-259) (assay: ELISA, coated LILRB4 ECD-His).
T1 construct: extracellular domain; Bought protein; it is not tied to this bought protein; also called LILRB4 protein; not shown: His tag

**Q.** Does B1 bind?
**A.** binds

**Q.** Does B2 bind?
**A.** binds

**Q.** Does B3 bind?
**A.** binds

**Q.** Does B4 bind?
**A.** binds
